Columns and labels:
[1] = target: CH505TF4.1 SOSIP Trimer (HV1301189, CH505TF.6R.SOSIP.664.v4.1) (HIV-1); assay: SPR antibody binding; drug substance of the 50 L scale run
[2] = target: CH505TF4.1 SOSIP Trimer (HV1301189, CH505TF.6R.SOSIP.664.v4.1) (HIV-1); assay: SPR antibody binding; drug substance of the 200 L scale run 1
[3] = target: CH505TF4.1 SOSIP Trimer (HV1301189, CH505TF.6R.SOSIP.664.v4.1) (HIV-1); assay: SPR antibody binding; drug substance of the 200 L scale run 2

Substance	Kd [1]	Kd [2]	Kd [3]
PGT145 (antibody)	11 nM	11.3 nM	11.7 nM
PGT151 (antibody)	17.5 nM	16 nM	13.1 nM
